Biological target: TF-HIS-BBX13 (BBX13/COL15) (Arabidopsis thaliana, UniProt Q9C7E8 1-433)
Assay: EMSA

Chain of TF-HIS-BBX13 (BBX13/COL15) (Q9C7E8 whole entry): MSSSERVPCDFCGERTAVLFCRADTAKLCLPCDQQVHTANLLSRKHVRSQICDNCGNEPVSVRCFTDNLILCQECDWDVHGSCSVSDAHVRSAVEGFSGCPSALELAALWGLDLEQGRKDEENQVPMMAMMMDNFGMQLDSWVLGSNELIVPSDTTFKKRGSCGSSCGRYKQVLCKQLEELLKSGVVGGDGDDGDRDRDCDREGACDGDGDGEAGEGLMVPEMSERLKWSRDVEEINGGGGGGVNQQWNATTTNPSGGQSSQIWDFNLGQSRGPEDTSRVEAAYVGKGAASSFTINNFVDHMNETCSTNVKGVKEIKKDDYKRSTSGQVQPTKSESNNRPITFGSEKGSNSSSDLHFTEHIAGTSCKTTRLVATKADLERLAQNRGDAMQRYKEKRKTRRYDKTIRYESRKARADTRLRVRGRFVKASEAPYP

B1: FT-CORE2 EMSA probe (FT Biot) (dsDNA)
DNA 1: ATCAATAGACAAGAAAAAGATTGTGGTTATGATTTCACCGACCCGAGTTAATG
DNA 2: CATTAACTCGGGTCGGTGAAATCATAACCACAATCTTTTTCTTGTCTATTGAT
binding result: binds
